{"source": "paper PMC3765947", "about": "(Current Biology, 2012)", "target": "purified FMNL2 N terminus (FMNL2N, aa 2-379) (human (from the printed UniProt …, UniProt Q96PY5-3 2-379))", "sequence (Q96PY5 2-379)": "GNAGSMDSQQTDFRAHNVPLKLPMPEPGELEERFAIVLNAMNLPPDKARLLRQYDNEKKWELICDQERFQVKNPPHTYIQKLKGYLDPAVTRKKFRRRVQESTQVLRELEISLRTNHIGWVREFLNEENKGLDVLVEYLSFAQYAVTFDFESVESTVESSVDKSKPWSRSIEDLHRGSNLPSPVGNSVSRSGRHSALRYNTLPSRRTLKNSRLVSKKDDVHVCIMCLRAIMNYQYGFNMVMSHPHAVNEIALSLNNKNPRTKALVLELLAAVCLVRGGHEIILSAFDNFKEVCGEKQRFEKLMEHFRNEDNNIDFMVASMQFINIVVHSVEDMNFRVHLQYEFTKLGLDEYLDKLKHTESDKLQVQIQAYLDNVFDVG", "assay": "ITC", "data": [{"binder": "Cdc42 (nucleotide-loaded, for ITC) (natural protein) not shown", "values": [{"measurement": "Kd", "value": "3.13 ± 0.38", "unit": "µM"}, {"measurement": "dH", "value": "-5.33 ± 0.16", "unit": "kcal/mol"}]}]}
